Substitutions are numbered along the chain they refer to. Names may count otherwise. Values belong to the molecule of their own block, whether it stands above or below them.
Molecular target: T1, integrin α5β1 (Homo sapiens, UniProt P05556+P08648)
T1 construct: purchased Bio-Techne
Assay: ELISA, binding to immobilized integrin α5β1
Conditions: 100 nM mutant, compared with Vi
Protocol: Vi ([49]) and its mutants were produced as reported ([14]). HUVECs were cultured as reported ([14], [50]).
Plates coated with 2 μg mL^−1 integrin α5β1, PAI-1, or PAI-1-uPA complex (37 °C, 10 min) were incubated with B-Vi45-51, Vi, or 100 nM ViH46A, ViR48A, or ViH46A/R48A. Competition used excess Src, alanine mutants, or THGR peptides. Detection used horseradish peroxidase antibodies and 3,3′,5,5′-tetramethylbenzidine.

T1 sequence (P08648 42-995 limits assumed): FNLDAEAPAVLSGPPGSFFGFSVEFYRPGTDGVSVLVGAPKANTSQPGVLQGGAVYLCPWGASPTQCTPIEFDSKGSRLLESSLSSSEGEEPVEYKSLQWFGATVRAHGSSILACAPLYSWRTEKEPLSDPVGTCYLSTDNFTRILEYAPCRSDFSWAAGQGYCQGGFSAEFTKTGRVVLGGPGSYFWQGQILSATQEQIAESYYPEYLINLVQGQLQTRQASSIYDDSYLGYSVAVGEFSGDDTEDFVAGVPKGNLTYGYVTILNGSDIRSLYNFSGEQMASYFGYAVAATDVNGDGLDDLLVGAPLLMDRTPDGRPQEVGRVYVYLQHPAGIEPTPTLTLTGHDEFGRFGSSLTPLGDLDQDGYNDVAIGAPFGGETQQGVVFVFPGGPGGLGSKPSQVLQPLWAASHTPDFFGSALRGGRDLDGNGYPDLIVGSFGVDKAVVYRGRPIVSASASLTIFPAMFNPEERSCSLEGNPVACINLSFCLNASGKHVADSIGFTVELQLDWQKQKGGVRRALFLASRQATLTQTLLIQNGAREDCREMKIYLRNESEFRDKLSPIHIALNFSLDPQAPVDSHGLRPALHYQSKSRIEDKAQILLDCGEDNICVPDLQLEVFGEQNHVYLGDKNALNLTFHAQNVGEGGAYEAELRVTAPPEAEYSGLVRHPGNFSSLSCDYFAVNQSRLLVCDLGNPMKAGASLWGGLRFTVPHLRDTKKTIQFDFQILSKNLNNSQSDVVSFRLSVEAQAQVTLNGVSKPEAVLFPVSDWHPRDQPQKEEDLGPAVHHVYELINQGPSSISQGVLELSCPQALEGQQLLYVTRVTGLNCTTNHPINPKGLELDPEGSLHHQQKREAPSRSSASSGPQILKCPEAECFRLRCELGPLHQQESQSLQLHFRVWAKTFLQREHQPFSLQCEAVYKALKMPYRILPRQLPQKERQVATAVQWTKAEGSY
T1 sequence (P05556 21-728 limits assumed): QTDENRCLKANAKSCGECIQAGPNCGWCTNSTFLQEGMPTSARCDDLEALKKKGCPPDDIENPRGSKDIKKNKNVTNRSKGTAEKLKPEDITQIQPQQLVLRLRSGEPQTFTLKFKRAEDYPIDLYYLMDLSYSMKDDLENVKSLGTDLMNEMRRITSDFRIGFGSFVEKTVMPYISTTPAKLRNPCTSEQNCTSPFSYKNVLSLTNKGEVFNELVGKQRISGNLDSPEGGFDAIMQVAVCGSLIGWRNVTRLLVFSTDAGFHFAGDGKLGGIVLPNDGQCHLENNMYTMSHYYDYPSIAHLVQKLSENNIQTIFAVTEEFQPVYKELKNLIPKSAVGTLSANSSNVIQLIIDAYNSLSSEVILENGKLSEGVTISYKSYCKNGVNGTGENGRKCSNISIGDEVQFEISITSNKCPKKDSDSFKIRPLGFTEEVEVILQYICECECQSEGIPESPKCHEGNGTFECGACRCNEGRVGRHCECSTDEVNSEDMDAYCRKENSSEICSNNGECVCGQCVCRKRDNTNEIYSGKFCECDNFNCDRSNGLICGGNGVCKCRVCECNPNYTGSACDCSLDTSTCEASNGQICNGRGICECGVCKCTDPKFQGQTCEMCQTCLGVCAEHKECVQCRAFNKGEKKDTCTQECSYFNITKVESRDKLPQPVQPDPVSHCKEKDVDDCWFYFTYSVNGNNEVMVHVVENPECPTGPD

Integrin α5β1 binding of Vi mutants: reduced integrin binding
B1: Vi-H46A: Vi mutant H46A (protein)
chain: LPICPGGAARCQVTLRDLFDRAVVLSHYIHNLSSEMFSEFDKRYTAGRGFITKAINSCHTSSLATPEDKEQAQQMNQKDFLSLIVSILRSWNEPLYHLVTEVRGMQEAPEAILSKAVEIEEQTKRLLEGMELIVSQVHPETKENEIYPVWSGLPSLQMADEESRLSAYYNLLHCLRRDSHKIDNYLKLLKCRIIHNNNC

Integrin α5β1 binding of Vi mutants: reduced integrin binding
B2: Vi-R48A: Vi mutant R48A (protein)
chain: B1 chain with A46H, R48A

Integrin α5β1 binding of Vi mutants: reduced integrin binding
B3: Vi-H46A/R48A: Vi double mutant H46A/R48A (protein)
chain: B1 chain with R48A

Source: PMC12795676, “Integrin α5β1 mediates the inhibitory effects of vasoinhibin on angiogenesis and vascular permeability [drawing 1]” (The Journal of Biological Chemistry, 2025)
